Consider 1 molecule from paper PMC3410656 (Nature structural & molecular biology, 2011).

For the test, the target named is blocked SNARE[change] (SNARE[change] with CPXcen residues 48-134 pre-bound) ( | rat | human, UniProt P63027;P32851;P60880-2;O14810). Kind of test: ITC. In general terms: In ITC the heat of successive injections is recorded.

B1: wild-type complexin fragment wtCPX (hCPX1 residues 26-83) (domain or fragment)
chain: KDPDAAKKEEERQEALRQAEEERKAKYAKMEAEREAVRQGIRDKYGIKKKEEREAEAQ
Consider B1, for which the Kd (commonly the constant that tells how readily two partners part at equilibrium) is about 10 µM.
